Experimental data published in doi:10.1101/199034 (bioRxiv, 2017).

How the values were obtained:
[1] = target: human KATPem (human SUR1-human Kir6.2 fusion construct) (human); experiment: cryo-EM structure
[2] = target: the molecule itself; experiment: cryo-EM structure

human KATPem (human SUR1-human Kir6.2 fusion construct) (complex)
stoichiometry N [1]: 4

B1: human Kir6.2 (natural protein, UniProt Q14654 1-390, looked up)
chain: MLSRKGIIPEEYVLTRLAEDPAKPRYRARQRRARFVSKKGNCNVAHKNIREQGRFLQDVFTTLVDLKWPHTLLIFTMSFLCSWLLFAMAWWLIAFAHGDLAPSEGTAEPCVTSIHSFSSAFLFSIEVQVTIGFGGRMVTEECPLAILILIVQNIVGLMINAIMLGCIFMKTAQAHRRAETLIFSKHAVIALRHGRLCFMLRVGDLRKSMIISATIHMQVVRKTTSPEGEVVPLHQVDIPMENGVGGNSIFLVAPLIIYHVIDANSPLYDLAPSDLHHHQDLEIIVILEGVVETTGITTQARTSYLADEILWGQRFVPIVAEEDGRYSVDYSKFGNTVKVPTPLCTARQLDEDHSLLEALTLASARGPLRKRSVPMAKAKPKFSISPDSLS
stoichiometry N [2]: 4
